# Measurements as given in paper PMC5497066, “GroEL actively stimulates folding of the endogenous substrate protein PepQ” (Nature Communications, 2017).
# B1: wild type E. coli PepQ (enzyme, UniProt P21165 1-443, looked up)
# chain: MESLASLYKNHIATLQERTRDALARFKLDALLIHSGELFNVFLDDHPYPFKVNPQFKAWVPVTQVPNCWLLVDGVNKPKLWFYLPVDYWHNVEPLPTSFWTEDVEVIALPKADGIGSLLPAARGNIGYIGPVPERALQLGIEASNINPKGVIDYLHYYRSFKTEYELACMREAQKMAVNGHRAAEEAFRSGMSEFDINIAYLTATGHRDTDVPYSNIVALNEHAAVLHYTKLDHQAPEEMRSFLLDAGAEYNGYAADLTRTWSAKSDNDYAQLVKDVNDEQLALIATMKAGVSYVDYHIQFHQRIAKLLRKHQIITDMSEEAMVENDLTGPFMPHGIGHPLGLQVHDVAGFMQDDSGTHLAAPAKYPYLRCTRILQPGMVLTIEPGIYFIESLLAPWREGQFSKHFNWQKIEALKPFGGIRIEDNVVIHENNVENMTRDLKLA
# notes: PepQ (Xaa-Pro dipeptidase, prolidase), E. coli, monomer of about 50 kDa; native form is a homodimer; also called prolidase; metalloprotease PepQ; source: E. coli BL21(DE3), purified (anion exchange, ammonium sulfate, Phenyl Sepharose)
# B2: PepQ-24F (enzyme, E. coli, UniProt P21165 1-443, looked up)
# chain: MESLASLYKNHIATLQERTRDALCRFKLDALLIHSGELFNVFLDDHPYPFKVNPQFKAWVPVTQVPNCWLLVDGVNKPKLWFYLPVDYWHNVEPLPTSFWTEDVEVIALPKADGIGSLLPAARGNIGYIGPVPERALQLGIEASNINPKGVIDYLHYYRSFKTEYELACMREAQKMAVNGHRAAEEAFRSGMSEFDINIAYLTATGHRDTDVPYSNIVALNEHAAVLHYTKLDHQAPEEMRSFLLDAGAEYNGYAADLTRTWSAKSDNDYAQLVKDVNDEQLALIATMKAGVSYVDYHIQFHQRIAKLLRKHQIITDMSEEAMVENDLTGPFMPHGIGHPLGLQVHDVAGFMQDDSGTHLAAPAKYPYLRCTRILQPGMVLTIEPGIYFIESLLAPWREGQFSKHFNWQKIEALKPFGGIRIEDNVVIHENNVENMTRDLKLA
# modifications: fluorescein (5-iodoacetamidofluorescein) on the cysteine at position 24
# notes: PepQ, E. coli, with the surface-exposed cysteine A24C; also called Fluorescein-labelled PepQ; A24C PepQ labelled with fluorescein; source: E. coli BL21(DE3), purified, labelled and re-purified (PD-10, MonoQ)
# B3: PepQ-24TMR (enzyme, E. coli, UniProt P21165 1-443, looked up)
# chain: MESLASLYKNHIATLQERTRDALCRFKLDALLIHSGELFNVFLDDHPYPFKVNPQFKAWVPVTQVPNCWLLVDGVNKPKLWFYLPVDYWHNVEPLPTSFWTEDVEVIALPKADGIGSLLPAARGNIGYIGPVPERALQLGIEASNINPKGVIDYLHYYRSFKTEYELACMREAQKMAVNGHRAAEEAFRSGMSEFDINIAYLTATGHRDTDVPYSNIVALNEHAAVLHYTKLDHQAPEEMRSFLLDAGAEYNGYAADLTRTWSAKSDNDYAQLVKDVNDEQLALIATMKAGVSYVDYHIQFHQRIAKLLRKHQIITDMSEEAMVENDLTGPFMPHGIGHPLGLQVHDVAGFMQDDSGTHLAAPAKYPYLRCTRILQPGMVLTIEPGIYFIESLLAPWREGQFSKHFNWQKIEALKPFGGIRIEDNVVIHENNVENMTRDLKLA
# modifications: tetramethylrhodamine (tetramethylrhodamine-5-iodoacetamide) on the cysteine at position 24
# notes: PepQ, E. coli, with the surface-exposed cysteine A24C in the first helix of the N-terminal domain; also called PepQ-TMR; A24C PepQ labelled with tetramethylrhodamine; source: E. coli BL21(DE3), purified, labelled and re-purified (PD-10, MonoQ)
# Assays:
# [1] = target: single-ring truncation mutant, SRΔ526 (E. coli); assay: cell-based or functional assay
# [2] = target: T1, wild-type GroEL tetradecamer (E. coli, UniProt P0A6F5 1-548); assay: cryo-EM structure; acid-urea denatured PepQ (7 μM final) titrated into GroEL or Δ526 (8 μM tetradecamers) in TKM buffer, no nucleotide, room temperature 5 min; asymmetric 3D classification and refinement; conditions: both partners purified
# T1 construct: GroEL (Hsp60 chaperonin), E. coli, homo-oligomer of 14 subunits of 57 kDa in two seven-membered rings; also called WT; full-length GroEL; source: E. coli BL21, purified (anion exchange, ammonium sulfate precipitation, Affi Blue Gel); copies: 14
# [3] = target: T2, asymmetric wild-type GroEL-GroES-ADP complex (E. coli, UniProt P0A6F5 1-548; P0A6F9 1-97); assay: protease protection (encapsulation); denatured PepQ-24F (100 nM) bound to wild-type or Δ526 GroEL-GroES-ADP bullets (200 nM) or full-length or Δ526 single-ring GroEL (300 nM) with GroES (600 nM); single turnover with ATP (2 mM), quenched after 10 s; unencapsulated PepQ digested with Proteinase K; SDS-PAGE, fluorescein scan; conditions: both partners purified
# T2 construct: GroEL, E. coli, wild type; GroES, ring-shaped co-chaperonin, E. coli; GroES caps one ring; also called GroEL-GroES-ADP bullets; source: GroEL from E. coli BL21 and GroES from E. coli BL21(DE3), each purified; complex formed beforehand with ADP; copies: 14 +
# [4] = target: T1, wild-type GroEL tetradecamer; assay: fluorescence correlation spectroscopy; acid-urea denatured PepQ-24TMR (2 nM) with GroEL (1 μM) in TKM buffer (50 mM Tris-HCl, pH 7.4, 50 mM KOAc, 10 mM Mg(OAc)2, 2 mM DTT); shift in diffusion time; conditions: both partners purified
binder,measurement,setting,value
B1,"observed folding rate constant of PepQ by recovery of enzymatic activity, bound to SRΔ526 (300 nM) and refolded with GroES (600 nM) and ATP (2 mM)",[1],0.332 min⁻¹
same,binding result,[2],binds
B2,binding result,[3],binds
B3,binding result,[4],binds
